Measurements: patent US20200165334A1 (FRAUNHOFER GESELLSCHAFT ZUR F RDERUNG DER ANGEWANDTEN …, published 2020)
Each block holds one binder with its values, some of them ahead of it.

Biological target: T1, murine IL-38 (mouse, UniProt Q8R459 1-152, limits assumed, C-terminally-biotinylated form)
T1 construct: Bacterially expressed in a C-terminally-biotinylated form and used as the antigen for phage selection; also called mouse IL-38; IL1F10
T1 sequence (looked up): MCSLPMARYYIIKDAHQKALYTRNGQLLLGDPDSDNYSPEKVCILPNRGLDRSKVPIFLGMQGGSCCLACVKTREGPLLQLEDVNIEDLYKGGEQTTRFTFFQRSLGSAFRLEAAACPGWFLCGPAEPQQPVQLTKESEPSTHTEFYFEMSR
Assay: biolayer interferometry, fitted sensorgrams (association to about 600 s, dissociation to 1800 s); concentrations of the traces not given

Kd: 69 nM
B1: Fab H06 (Fab, V domains shown)
VH: EVQLVESGGGLVQPGGSLRLSCAASGFSLSYSYIHWVRQAPGKGLEWVASISPSYSYTSYADSVKGRFTISADTSKNTAYLQMNSLRAEDTAVYYCARAPVPHVWPYSGFDYWGQGTLVTVSS
VL: DIQMTQSPSSLSASVGDRVTITCRASQSVSSAVAWYQQKPGKAPKLLIYSASSLYSGVPSRFSGSRSGTDFTLTISSLQPEDFATYYCQQAYWSPITFGQGTKVEIK
notes: the constant domains of the Fab are not

Kd: 6.7 nM
B2: Fab E04 (Fab, V domains shown)
VH: EVQLVESGGGLVQPGGSLRLSCAASGFSFSSSSIHWVRQAPGKGLEWVASISPYYSYTSYADSVKGRFTISADTSKNTAYLQMNSLRAEDTAVYYCARTVRGSKKPYFSGWAMDYWGQGTLVTVSS
VL: DIQMTQSPSSLSASVGDRVTITCRASQSYYSYVAWYQQKPGKAPKLLIYSASSLYSGVPSRFSGSRSGTDFTLTISSLQPEDFATYYCQQVFAPITFGQGTKVEIK
notes: as for B1
